The values that follow come from patent publication US20210284749A1 (ABL BIO, published 2021).

In assay [1] the target is T1, human BCMA expressed on cell surface (H929, OPM-2, CHOK1-hBCMA cells) (human, UniProt Q02223 1-184).
T1 construct: also called cell-surface BCMA; BCMA on cell surface
T1 sequence: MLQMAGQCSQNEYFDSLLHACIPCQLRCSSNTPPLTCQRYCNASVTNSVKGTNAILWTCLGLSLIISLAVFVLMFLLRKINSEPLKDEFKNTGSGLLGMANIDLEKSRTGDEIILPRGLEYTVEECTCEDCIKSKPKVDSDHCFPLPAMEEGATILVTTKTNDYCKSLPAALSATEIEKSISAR
Nature of the assay: FACS on H929 cells.

Assay [2] deals with T2, recombinant human BCMA (ELISA antigen, construct not specified) (human, UniProt Q02223 1-54).
T2 construct: Fc 1-51; Fc/His 1-51; Fc 4-48) was coated in these ELISAs; also called recombinant BCMA; recombinant protein
T2 sequence: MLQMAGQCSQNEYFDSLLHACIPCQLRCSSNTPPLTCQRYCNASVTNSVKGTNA
Nature of the assay: ELISA on recombinant BCMA.

Assay [3] concerns the target T3, human monomeric BCMA antigen (human, UniProt Q02223 5-54, limits assumed).
T3 construct: also called recombinant human BCMA antigens
T3 chain: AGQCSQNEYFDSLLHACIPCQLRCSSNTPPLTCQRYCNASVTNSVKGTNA
Nature of the assay: SPR (Biacore T200), antibody captured on protein A chip, antigen 6.25-100 nM. How it is done: In particular, the prepared antibodies were diluted with a 1×HPS-EP buffer (GE Healthcare, BR-1006-69). The target antigen-binding affinity analysis was performed using a Biacore T200 (GE Healthcare). The antibodies were flowed onto a protein A chip at a contact time of 60 seconds, a stabilization time of 30 seconds, and a flow rate of 30 μl/min until a capture level reached 128 RU (Response Unit), thereby preparing an antibody-captured protein A chip.
The antigen was sequentially diluted with a 1×HPS-EP buffer, by 2-fold each time, from 100 nM to 6.25 nM, thereby preparing a total of […] samples. The 1×HPS-EP buffer was used as a negative control group (blank).
The prepared antigen was flowed across the antibody-captured protein A chip at a flow rate of 30 μl/min for an association time of 60 seconds, followed by a disassociation phase for 180 seconds. Regeneration was performed with a 10-mM Glycine-HCL (pH 1.5) buffer (GE Healthcare, BR-1003-54) at a flow rate of 30 μl/min for a contact time of 30 seconds.

B1: mutant antibody 5A6 LM6 (antibody, V domains shown)
VH: EVQLLESGGGLVQPGGSLRLSCAASGFTFSNYGVHWVRQAPGKGLEWVSYISYSGGTYYNPSLKSRFTISRDNSKNTLYLQMNSLRAEDTAVYYCARDSDDFGFDYWGQGTLVTVSS
VL: QSVLTQPPSASGTPGQRVTISCQGESLRSYYVNWYQQLPGTAPKLLIYDHSKRPTGVPDRFSGSKSGTSASLAISGLRSEDEADYYCQSYDASTVVFGGGTKLTVLG
notes: Light chain CDR mutant of 5A6 (IgG1); heavy chain as 5A6
B1 registered an MFI in assay [1] of 78.9. The EC50 in assay [2] is 0.0537 nM. In assay [3], this molecule gave a Kd of 18.1 nM, a koff of 0.00922 s⁻¹ and a kon of 509000 M⁻¹ s⁻¹.

B2: mutant antibody 5A6 LM7 (antibody, V domains shown)
VH: EVQLLESGGGLVQPGGSLRLSCAASGFTFSNYGVHWVRQAPGKGLEWVSYISYSGGTYYNPSLKSRFTISRDNSKNTLYLQMNSLRAEDTAVYYCARDSDDFGFDYWGQGTLVTVSS
VL: QSVLTQPPSASGTPGQRVTISCQGDALRSYYVNWYQQLPGTAPKLLIYDHSKRPTGVPDRFSGSKSGTSASLAISGLRSEDEADYYCQSYESSTVVFGGGTKLTVLG
notes: as for B1
Turning to B2, the MFI in assay [1] is 71.1. Besides, the EC50 in assay [2] stood at 0.105 nM.

B3: mutant antibody 5A6 LM3 (antibody, V domains shown)
VH: EVQLLESGGGLVQPGGSLRLSCAASGFTFSNYGVHWVRQAPGKGLEWVSYISYSGGTYYNPSLKSRFTISRDNSKNTLYLQMNSLRAEDTAVYYCARDSDDFGFDYWGQGTLVTVSS
VL: QSVLTQPPSASGTPGQRVTISCQGDSLRSYYVNWYQQLPGTAPKLLIYDHSKRPTGVPDRFSGSKSGTSASLAISGLRSEDEADYYCQSYESSTVVFGGGTKLTVLG
notes: as for B1
In the case of B3, in assay [1], the MFI was 84.6. In assay [2], the EC50 came to 0.133 nM.

B4: mutant antibody 5A6 LM2 (antibody, V domains shown)
VH: EVQLLESGGGLVQPGGSLRLSCAASGFTFSNYGVHWVRQAPGKGLEWVSYISYSGGTYYNPSLKSRFTISRDNSKNTLYLQMNSLRAEDTAVYYCARDSDDFGFDYWGQGTLVTVSS
VL: QSVLTQPPSASGTPGQRVTISCQGDALRSYYVNWYQQLPGTAPKLLIYDHSKRPTGVPDRFSGSKSGTSASLAISGLRSEDEADYYCQSYDSSTVVFGGGTKLTVLG
notes: as for B1
As for B4, in assay [1], the MFI amounted to 66.7. In assay [2], the EC50 came out at 0.0509 nM.

B5: mutant antibody 5A6 LM8 (antibody, V domains shown)
VH: EVQLLESGGGLVQPGGSLRLSCAASGFTFSNYGVHWVRQAPGKGLEWVSYISYSGGTYYNPSLKSRFTISRDNSKNTLYLQMNSLRAEDTAVYYCARDSDDFGFDYWGQGTLVTVSS
VL: QSVLTQPPSASGTPGQRVTISCQGDALRSYYVNWYQQLPGTAPKLLIYDHSKRPTGVPDRFSGSKSGTSASLAISGLRSEDEADYYCQSYDASTVVFGGGTKLTVLG
notes: as for B1
As to B5, the MFI in assay [1] was determined as 68.6. In addition, in assay [2], the EC50 was 0.068 nM.

B6: mutant antibody 5A6 LM4 (antibody, V domains shown)
VH: EVQLLESGGGLVQPGGSLRLSCAASGFTFSNYGVHWVRQAPGKGLEWVSYISYSGGTYYNPSLKSRFTISRDNSKNTLYLQMNSLRAEDTAVYYCARDSDDFGFDYWGQGTLVTVSS
VL: QSVLTQPPSASGTPGQRVTISCQGDSLRSYYVNWYQQLPGTAPKLLIYDHSKRPTGVPDRFSGSKSGTSASLAISGLRSEDEADYYCQSYDASTVVFGGGTKLTVLG
notes: as for B1
In the case of B6, in assay [1], the MFI was determined as 77.1. Further, the EC50 in assay [2] worked out at 0.0823 nM.

B7: mutant antibody 5A6 LM1 (antibody, V domains shown)
VH: EVQLLESGGGLVQPGGSLRLSCAASGFTFSNYGVHWVRQAPGKGLEWVSYISYSGGTYYNPSLKSRFTISRDNSKNTLYLQMNSLRAEDTAVYYCARDSDDFGFDYWGQGTLVTVSS
VL: QSVLTQPPSASGTPGQRVTISCQGESLRSYYVNWYQQLPGTAPKLLIYDHSKRPTGVPDRFSGSKSGTSASLAISGLRSEDEADYYCQSYDSSTVVFGGGTKLTVLG
notes: as for B1
The molecule B7 registered an MFI in assay [1] of 83.4. Besides, in assay [2], the EC50 was 0.0818 nM.

B8: mutant antibody 5A6 LM5 (antibody, V domains shown)
VH: EVQLLESGGGLVQPGGSLRLSCAASGFTFSNYGVHWVRQAPGKGLEWVSYISYSGGTYYNPSLKSRFTISRDNSKNTLYLQMNSLRAEDTAVYYCARDSDDFGFDYWGQGTLVTVSS
VL: QSVLTQPPSASGTPGQRVTISCQGESLRSYYVNWYQQLPGTAPKLLIYDHSKRPTGVPDRFSGSKSGTSASLAISGLRSEDEADYYCQSYESSTVVFGGGTKLTVLG
notes: as for B1
B8: in assay [1], the MFI was determined as 81.4. Moreover, in assay [2], the EC50 amounted to 0.103 nM.

B9: mutant antibody 5D5 LM4 (antibody, V domains shown)
VH: EVQLLESGGGLVQPGGSLRLSCAASGFTFSDYGLSWVRQAPGKGLEWVSLIDSSGSSTFYADSVKGRFTISRDNSKNTLYLQMNSLRAEDTAVYYCAKEHGLFDSWGQGTLVTVSS
VL: EIVLTQSPGTLSLSPGERATLSCKASQDIDDAINWYQQKPGQAPRLLIYDASLRATGIPDRFSGSGSGTDFTLTISRLEPEDFAVYYCQQSLRTPITFGQGTKLEIKR
notes: Light chain CDR mutant of 5D5 (IgG1); heavy chain as 5D5
In assay [1], B9 came in with an MFI of 62.3. Moreover, the EC50 in assay [2] is 0.0708 nM. In assay [3], this molecule returned a Kd of 14.2 nM, a koff of 0.0594 s⁻¹ and an association rate constant (kon) of 4.17e+06 M⁻¹ s⁻¹.

B10: mutant antibody 5D5 LM5 (antibody, V domains shown)
VH: EVQLLESGGGLVQPGGSLRLSCAASGFTFSDYGLSWVRQAPGKGLEWVSLIDSSGSSTFYADSVKGRFTISRDNSKNTLYLQMNSLRAEDTAVYYCAKEHGLFDSWGQGTLVTVSS
VL: EIVLTQSPGTLSLSPGERATLSCKASQDIDDEINWYQQKPGQAPRLLIYDASLRATGIPDRFSGSGSGTDFTLTISRLEPEDFAVYYCQQSLRTPITFGQGTKLEIKR
notes: as for B9
With B10, the MFI in assay [1] was 73.6. The EC50 in assay [2] turned out to be 0.0763 nM.

B11: mutant antibody 5D5 LM2 (antibody, V domains shown)
VH: EVQLLESGGGLVQPGGSLRLSCAASGFTFSDYGLSWVRQAPGKGLEWVSLIDSSGSSTFYADSVKGRFTISRDNSKNTLYLQMNSLRAEDTAVYYCAKEHGLFDSWGQGTLVTVSS
VL: EIVLTQSPGTLSLSPGERATLSCKASQDIDEDINWYQQKPGQAPRLLIYDASLRATGIPDRFSGSGSGTDFTLTISRLEPEDFAVYYCQQSLRTPITFGQGTKLEIKR
notes: as for B9
As for B11, the MFI in assay [1] was determined as 29. Moreover, the EC50 in assay [2] came out at 0.0858 nM.

B12: mutant antibody 5D5 LM3 (antibody, V domains shown)
VH: EVQLLESGGGLVQPGGSLRLSCAASGFTFSDYGLSWVRQAPGKGLEWVSLIDSSGSSTFYADSVKGRFTISRDNSKNTLYLQMNSLRAEDTAVYYCAKEHGLFDSWGQGTLVTVSS
VL: EIVLTQSPGTLSLSPGERATLSCKASQDIDADINWYQQKPGQAPRLLIYDASLRATGIPDRFSGSGSGTDFTLTISRLEPEDFAVYYCQQSLRTPITFGQGTKLEIKR
notes: as for B9
Take B12: the MFI in assay [1] is 31.5. In assay [2], the concentration for a half-maximal effect (EC50) was determined as 0.0593 nM.

B13: mutant antibody 5D5 LM1 (antibody, V domains shown)
VH: EVQLLESGGGLVQPGGSLRLSCAASGFTFSDYGLSWVRQAPGKGLEWVSLIDSSGSSTFYADSVKGRFTISRDNSKNTLYLQMNSLRAEDTAVYYCAKEHGLFDSWGQGTLVTVSS
VL: EIVLTQSPGTLSLSPGERATLSCKASQDIDNDINWYQQKPGQAPRLLIYDASLRATGIPDRFSGSGSGTDFTLTISRLEPEDFAVYYCQQSLRTPITFGQGTKLEIKR
notes: as for B9
With B13, the MFI in assay [1] was determined as 32. Besides, in assay [2], the EC50 worked out at 0.0939 nM.
